Results published in US20260070987A1.

B1: equine IgG1 Q311W (antibody, part only; not given: variable domains, not shown: another chain or arm of the molecule)
constant: ASTTAPKVFALAPGCGTTSDSTVALGCLVSGYFPEPVKVSWNSGSLTSGVHTFPSVLQSSGFYSLSSMVTVPASTWTSETYICNVVHAASNFKVDKRIEPIPDNHQKVCDMSKCPKCPAPELLGGPSVFIFPPNPKDTLMITRTPEVTCVVVDVSQENPDVKFNWYMDGVEVRTATTRPKEEQFNSTYRVVSVLRIQHWDWLSGKEFKCKVNNQALPQPIERTITKTKGRSQEPQVYVLAPHPDELSKSKVSVTCLVKDFYPPEINIEWQSNGQPELETKYSTTQAQQDSDGSYFLYSKLSVDRNRWQQGTTFTCGVMHEALHNHYTQKNVSKNPGK
B2: equine IgG1 D312L (antibody, part only; not given: variable domains, not shown: another chain or arm of the molecule)
constant: ASTTAPKVFALAPGCGTTSDSTVALGCLVSGYFPEPVKVSWNSGSLTSGVHTFPSVLQSSGFYSLSSMVTVPASTWTSETYICNVVHAASNFKVDKRIEPIPDNHQKVCDMSKCPKCPAPELLGGPSVFIFPPNPKDTLMITRTPEVTCVVVDVSQENPDVKFNWYMDGVEVRTATTRPKEEQFNSTYRVVSVLRIQHQLWLSGKEFKCKVNNQALPQPIERTITKTKGRSQEPQVYVLAPHPDELSKSKVSVTCLVKDFYPPEINIEWQSNGQPELETKYSTTQAQQDSDGSYFLYSKLSVDRNRWQQGTTFTCGVMHEALHNHYTQKNVSKNPGK
B3: equine IgG1 D312Q (antibody, part only; not given: variable domains, not shown: another chain or arm of the molecule)
constant: ASTTAPKVFALAPGCGTTSDSTVALGCLVSGYFPEPVKVSWNSGSLTSGVHTFPSVLQSSGFYSLSSMVTVPASTWTSETYICNVVHAASNFKVDKRIEPIPDNHQKVCDMSKCPKCPAPELLGGPSVFIFPPNPKDTLMITRTPEVTCVVVDVSQENPDVKFNWYMDGVEVRTATTRPKEEQFNSTYRVVSVLRIQHQQWLSGKEFKCKVNNQALPQPIERTITKTKGRSQEPQVYVLAPHPDELSKSKVSVTCLVKDFYPPEINIEWQSNGQPELETKYSTTQAQQDSDGSYFLYSKLSVDRNRWQQGTTFTCGVMHEALHNHYTQKNVSKNPGK
B4: equine IgG1 M252L (antibody, part only; not given: variable domains, not shown: another chain or arm of the molecule)
constant: ASTTAPKVFALAPGCGTTSDSTVALGCLVSGYFPEPVKVSWNSGSLTSGVHTFPSVLQSSGFYSLSSMVTVPASTWTSETYICNVVHAASNFKVDKRIEPIPDNHQKVCDMSKCPKCPAPELLGGPSVFIFPPNPKDTLLITRTPEVTCVVVDVSQENPDVKFNWYMDGVEVRTATTRPKEEQFNSTYRVVSVLRIQHQDWLSGKEFKCKVNNQALPQPIERTITKTKGRSQEPQVYVLAPHPDELSKSKVSVTCLVKDFYPPEINIEWQSNGQPELETKYSTTQAQQDSDGSYFLYSKLSVDRNRWQQGTTFTCGVMHEALHNHYTQKNVSKNPGK
B5: equine IgG1 D312P (antibody, part only; not given: variable domains, not shown: another chain or arm of the molecule)
constant: ASTTAPKVFALAPGCGTTSDSTVALGCLVSGYFPEPVKVSWNSGSLTSGVHTFPSVLQSSGFYSLSSMVTVPASTWTSETYICNVVHAASNFKVDKRIEPIPDNHQKVCDMSKCPKCPAPELLGGPSVFIFPPNPKDTLMITRTPEVTCVVVDVSQENPDVKFNWYMDGVEVRTATTRPKEEQFNSTYRVVSVLRIQHQPWLSGKEFKCKVNNQALPQPIERTITKTKGRSQEPQVYVLAPHPDELSKSKVSVTCLVKDFYPPEINIEWQSNGQPELETKYSTTQAQQDSDGSYFLYSKLSVDRNRWQQGTTFTCGVMHEALHNHYTQKNVSKNPGK
B6: equine IgG1 D312C (antibody, part only; not given: variable domains, not shown: another chain or arm of the molecule)
constant: ASTTAPKVFALAPGCGTTSDSTVALGCLVSGYFPEPVKVSWNSGSLTSGVHTFPSVLQSSGFYSLSSMVTVPASTWTSETYICNVVHAASNFKVDKRIEPIPDNHQKVCDMSKCPKCPAPELLGGPSVFIFPPNPKDTLMITRTPEVTCVVVDVSQENPDVKFNWYMDGVEVRTATTRPKEEQFNSTYRVVSVLRIQHQCWLSGKEFKCKVNNQALPQPIERTITKTKGRSQEPQVYVLAPHPDELSKSKVSVTCLVKDFYPPEINIEWQSNGQPELETKYSTTQAQQDSDGSYFLYSKLSVDRNRWQQGTTFTCGVMHEALHNHYTQKNVSKNPGK
B7: equine IgG1 Q311Y (antibody, part only; not given: Variable domains, not shown: another chain or arm of the molecule)
constant: ASTTAPKVFALAPGCGTTSDSTVALGCLVSGYFPEPVKVSWNSGSLTSGVHTFPSVLQSSGFYSLSSMVTVPASTWTSETYICNVVHAASNFKVDKRIEPIPDNHQKVCDMSKCPKCPAPELLGGPSVFIFPPNPKDTLMITRTPEVTCVVVDVSQENPDVKFNWYMDGVEVRTATTRPKEEQFNSTYRVVSVLRIQHYDWLSGKEFKCKVNNQALPQPIERTITKTKGRSQEPQVYVLAPHPDELSKSKVSVTCLVKDFYPPEINIEWQSNGQPELETKYSTTQAQQDSDGSYFLYSKLSVDRNRWQQGTTFTCGVMHEALHNHYTQKNVSKNPGK
B8: equine IgG1 D312G (antibody, part only; not given: variable domains, not shown: another chain or arm of the molecule)
constant: ASTTAPKVFALAPGCGTTSDSTVALGCLVSGYFPEPVKVSWNSGSLTSGVHTFPSVLQSSGFYSLSSMVTVPASTWTSETYICNVVHAASNFKVDKRIEPIPDNHQKVCDMSKCPKCPAPELLGGPSVFIFPPNPKDTLMITRTPEVTCVVVDVSQENPDVKFNWYMDGVEVRTATTRPKEEQFNSTYRVVSVLRIQHQGWLSGKEFKCKVNNQALPQPIERTITKTKGRSQEPQVYVLAPHPDELSKSKVSVTCLVKDFYPPEINIEWQSNGQPELETKYSTTQAQQDSDGSYFLYSKLSVDRNRWQQGTTFTCGVMHEALHNHYTQKNVSKNPGK
B9: equine IgG1 D312A (antibody, part only; not given: variable domains, not shown: another chain or arm of the molecule)
constant: ASTTAPKVFALAPGCGTTSDSTVALGCLVSGYFPEPVKVSWNSGSLTSGVHTFPSVLQSSGFYSLSSMVTVPASTWTSETYICNVVHAASNFKVDKRIEPIPDNHQKVCDMSKCPKCPAPELLGGPSVFIFPPNPKDTLMITRTPEVTCVVVDVSQENPDVKFNWYMDGVEVRTATTRPKEEQFNSTYRVVSVLRIQHQAWLSGKEFKCKVNNQALPQPIERTITKTKGRSQEPQVYVLAPHPDELSKSKVSVTCLVKDFYPPEINIEWQSNGQPELETKYSTTQAQQDSDGSYFLYSKLSVDRNRWQQGTTFTCGVMHEALHNHYTQKNVSKNPGK
B10: equine IgG1 D312H (antibody, part only; not given: variable domains, not shown: another chain or arm of the molecule)
constant: ASTTAPKVFALAPGCGTTSDSTVALGCLVSGYFPEPVKVSWNSGSLTSGVHTFPSVLQSSGFYSLSSMVTVPASTWTSETYICNVVHAASNFKVDKRIEPIPDNHQKVCDMSKCPKCPAPELLGGPSVFIFPPNPKDTLMITRTPEVTCVVVDVSQENPDVKFNWYMDGVEVRTATTRPKEEQFNSTYRVVSVLRIQHQHWLSGKEFKCKVNNQALPQPIERTITKTKGRSQEPQVYVLAPHPDELSKSKVSVTCLVKDFYPPEINIEWQSNGQPELETKYSTTQAQQDSDGSYFLYSKLSVDRNRWQQGTTFTCGVMHEALHNHYTQKNVSKNPGK
B11: equine IgG1 D312M (antibody, part only; not given: Variable domains, not shown: another chain or arm of the molecule)
constant: ASTTAPKVFALAPGCGTTSDSTVALGCLVSGYFPEPVKVSWNSGSLTSGVHTFPSVLQSSGFYSLSSMVTVPASTWTSETYICNVVHAASNFKVDKRIEPIPDNHQKVCDMSKCPKCPAPELLGGPSVFIFPPNPKDTLMITRTPEVTCVVVDVSQENPDVKFNWYMDGVEVRTATTRPKEEQFNSTYRVVSVLRIQHQMWLSGKEFKCKVNNQALPQPIERTITKTKGRSQEPQVYVLAPHPDELSKSKVSVTCLVKDFYPPEINIEWQSNGQPELETKYSTTQAQQDSDGSYFLYSKLSVDRNRWQQGTTFTCGVMHEALHNHYTQKNVSKNPGK
B12: equine IgG1 D312F (antibody, part only; not given: Variable domains, not shown: another chain or arm of the molecule)
constant: ASTTAPKVFALAPGCGTTSDSTVALGCLVSGYFPEPVKVSWNSGSLTSGVHTFPSVLQSSGFYSLSSMVTVPASTWTSETYICNVVHAASNFKVDKRIEPIPDNHQKVCDMSKCPKCPAPELLGGPSVFIFPPNPKDTLMITRTPEVTCVVVDVSQENPDVKFNWYMDGVEVRTATTRPKEEQFNSTYRVVSVLRIQHQFWLSGKEFKCKVNNQALPQPIERTITKTKGRSQEPQVYVLAPHPDELSKSKVSVTCLVKDFYPPEINIEWQSNGQPELETKYSTTQAQQDSDGSYFLYSKLSVDRNRWQQGTTFTCGVMHEALHNHYTQKNVSKNPGK
B13: equine IgG1 D312E (antibody, part only; not given: variable domains, not shown: another chain or arm of the molecule)
constant: ASTTAPKVFALAPGCGTTSDSTVALGCLVSGYFPEPVKVSWNSGSLTSGVHTFPSVLQSSGFYSLSSMVTVPASTWTSETYICNVVHAASNFKVDKRIEPIPDNHQKVCDMSKCPKCPAPELLGGPSVFIFPPNPKDTLMITRTPEVTCVVVDVSQENPDVKFNWYMDGVEVRTATTRPKEEQFNSTYRVVSVLRIQHQEWLSGKEFKCKVNNQALPQPIERTITKTKGRSQEPQVYVLAPHPDELSKSKVSVTCLVKDFYPPEINIEWQSNGQPELETKYSTTQAQQDSDGSYFLYSKLSVDRNRWQQGTTFTCGVMHEALHNHYTQKNVSKNPGK
B14: equine IgG1 D312S (antibody, part only; not given: variable domains, not shown: another chain or arm of the molecule)
constant: ASTTAPKVFALAPGCGTTSDSTVALGCLVSGYFPEPVKVSWNSGSLTSGVHTFPSVLQSSGFYSLSSMVTVPASTWTSETYICNVVHAASNFKVDKRIEPIPDNHQKVCDMSKCPKCPAPELLGGPSVFIFPPNPKDTLMITRTPEVTCVVVDVSQENPDVKFNWYMDGVEVRTATTRPKEEQFNSTYRVVSVLRIQHQSWLSGKEFKCKVNNQALPQPIERTITKTKGRSQEPQVYVLAPHPDELSKSKVSVTCLVKDFYPPEINIEWQSNGQPELETKYSTTQAQQDSDGSYFLYSKLSVDRNRWQQGTTFTCGVMHEALHNHYTQKNVSKNPGK
B15: equine IgG1 D312N (antibody, part only; not given: variable domains, not shown: another chain or arm of the molecule)
constant: ASTTAPKVFALAPGCGTTSDSTVALGCLVSGYFPEPVKVSWNSGSLTSGVHTFPSVLQSSGFYSLSSMVTVPASTWTSETYICNVVHAASNFKVDKRIEPIPDNHQKVCDMSKCPKCPAPELLGGPSVFIFPPNPKDTLMITRTPEVTCVVVDVSQENPDVKFNWYMDGVEVRTATTRPKEEQFNSTYRVVSVLRIQHQNWLSGKEFKCKVNNQALPQPIERTITKTKGRSQEPQVYVLAPHPDELSKSKVSVTCLVKDFYPPEINIEWQSNGQPELETKYSTTQAQQDSDGSYFLYSKLSVDRNRWQQGTTFTCGVMHEALHNHYTQKNVSKNPGK
B16: equine IgG1 D312K (antibody, part only; not given: variable domains, not shown: another chain or arm of the molecule)
constant: ASTTAPKVFALAPGCGTTSDSTVALGCLVSGYFPEPVKVSWNSGSLTSGVHTFPSVLQSSGFYSLSSMVTVPASTWTSETYICNVVHAASNFKVDKRIEPIPDNHQKVCDMSKCPKCPAPELLGGPSVFIFPPNPKDTLMITRTPEVTCVVVDVSQENPDVKFNWYMDGVEVRTATTRPKEEQFNSTYRVVSVLRIQHQKWLSGKEFKCKVNNQALPQPIERTITKTKGRSQEPQVYVLAPHPDELSKSKVSVTCLVKDFYPPEINIEWQSNGQPELETKYSTTQAQQDSDGSYFLYSKLSVDRNRWQQGTTFTCGVMHEALHNHYTQKNVSKNPGK

Molecular target: equine FcRn (large alpha subunit p51) / equine beta-2-microglobulin complex, biotinylated (equine) (UniProt P30441)
Sequence of UniProt P30441 (P30441 21-118, one chain of several): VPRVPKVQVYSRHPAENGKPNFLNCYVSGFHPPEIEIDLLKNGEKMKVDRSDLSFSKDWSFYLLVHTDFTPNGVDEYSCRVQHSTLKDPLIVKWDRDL
Assay: SPR (Biacore), pH 6

Q: B1 was tested. Which Kd did it give?
A: 21.2 nM

Q: B2 was tested. Which Kd did it give?
A: 24.6 nM

Q: B3 was tested. Which Kd did it give?
A: 46 nM

Q: B4 was tested. Which Kd did it give?
A: 101 nM

Q: With B5 as the binder, how does the Kd read?
A: 8.88 nM

Q: With B6 as the binder, how does the Kd read?
A: 21 nM

Q: B7 was tested. Which Kd did it give?
A: 21.2 nM

Q: How did the Kd turn out when B8 was run?
A: 16.2 nM

Q: B9 was tested. Which Kd did it give?
A: 9.86 nM

Q: Which Kd does the source give for B10 here?
A: 17.1 nM

Q: Which Kd does the source give for B11 here?
A: 23.4 nM

Q: How did the Kd turn out when B12 was run?
A: 17.8 nM

Q: How did the Kd turn out when B13 was run?
A: 25.2 nM

Q: Which Kd does the source give for B14 here?
A: 16.7 nM

Q: Which Kd does the source give for B15 here?
A: 22.3 nM

Q: Which Kd does the source give for B16 here?
A: 15.8 nM
